Measured values reported in patent publication US9289381B2, “Stabilization and storage of biological pharmaceutical compositions” (The University of North Carolina at Charlotte, priority 2009, dated 2016).
“And” between values parts separate entries of the source, which are not always exact repeats. Identical values can stand only once.

Legend:
[1] = Microcalorimetry (DSC) of HEWL dispersions stored in 80% w/w CDHP or 0.1M NaOAc; format: physicochemical; design: Thermal transition midpoint temperature of HEWL: unit not given here
Method: The samples were formulated in 2 ml silanized glass vials to reduce protein-surface interactions, covered with cap and septa, wrapped with parafilm to ensure no drying out of the sample, and stored away from sunlight. They were stirred for at least 24 hours until a homogeneous distribution of protein was obtained. […] The 35 silanized vials were exposed to UV light for 24 hours to ensure sterility. Control samples at equivalent concentrations were also prepared in triplicates in 0.1M NaOAc buffer (pH 4). Samples were tested for thermal stability via microcalorimetry and functional activity via the micrococcus lysodeikticus assay at monthly intervals.
A MicroCal VP-DSC microcalorimeter was used to assess thermal structural stability of all samples. Baseline repeatability was established with a minimum of 5 buffer-buffer scans. […] HEWL solutions were tested similarly with no dilution of the samples. Between samples, during the filling period of 15° C. to 25° C., the sample cell of the DSC was flushed with at least 25 ml distilled H2O, then at least 15 ml NaOAc to ensure no sample residue remained behind. Thermal profiles, enthalpy changes, and transition temperatures were obtained with Origin software.
All formulations were diluted to 0.1-0.5 mg/ml for testing. This allows one to observe how well protein thermal stability and structural integrity is maintained following storage and then dilution into a solution of similar composition as the environment of the body.

[2] = Microcalorimetry (DSC) of 1 mg/ml HEWL solutions in 0-40% w/w CDHP or 20% choline chloride in 0.1M NaOAc; format: physicochemical
Method: All samples were prepared in triplicate. A MicroCal VP-DSC microcalorimeter was used to assess thermal structural stability of all samples. […] HEWL solutions were tested similarly with no dilution of the samples. Between samples, during the filling period of 15° C. to 25° C., the sample cell of the DSC was flushed with at least 25 ml distilled H2O, then at least 15 ml NaOAc to ensure no sample residue remained behind. Thermal profiles, enthalpy changes, and transition temperatures were obtained with Origin software.

[3] = system: micrococcus lysodeikticus; assay: Micrococcus lysodeikticus turbidimetric assay of HEWL enzyme activity; format: biochemical; settings: formulated in NaOAc compared with 80% w/w CDHP, 10 and 100 mg/ml, 5 months
[4] = 350 mg/ml vs 1 mg/ml, aqueous solvent; cited from earlier work
[5] = Sedimentation analysis of HEWL dispersions (centrifugation, BCA); format: physicochemical; settings: HEWL dispersion in 80% w/w CDHP, 75 minutes at 15000 RPM
Method: The presence of any CDHP crystals was also noted. […] Images were taken using SlideBook.
The second approach to verify these sample compositions was to determine the amount of protein in the dispersed phase after separation of the solid and liquid components by centrifugation. To achieve separation of these components, solutions were centrifuged for 75 minutes at 15000 RPM, about 10% remained in the supernatant. Both the decanted supernatant and the pellet, which was re-suspended in buffer, were analyzed for protein content. It was observed that ˜90% of the formulated protein was contained in the pellet. The remaining about 10% of the formulated protein was found in the supernatant. […] Although the supernatants appeared clear it is possible that there are sub-visible particles of lysozyme in the supernatant that resist sedimentation at this rate.

[6] = stored at 100 mg/ml in Choline dhp, 3 months
[7] = stored at 100 mg/ml in Choline dhp, 4 months
[8] = stored at 100 mg/ml in Choline dhp, 5 months
[9] = 20% w/w Choline Chloride in 0.1M NaOAc

## HEWL: hen egg white lysozyme (HEWL), a well characterized protein, purchased from Worthington Biochem
[1]; [6]
  Enthalpy of unfolding of HEWL: 55.235 kcal/mol and 57.272 kcal/mol and 54.9 kcal/mol
  Thermal transition midpoint temperature of HEWL: 346.39 and 346.37
[1]; [7]
  Enthalpy of unfolding of HEWL: 45.2295 kcal/mol and 45.5805 kcal/mol and 49.716 kcal/mol
  Thermal transition midpoint temperature of HEWL: 346.3 and 346.35 and 346.37
[1]; [8]
  Enthalpy of unfolding of HEWL: 38.9 kcal/mol and 36.4 kcal/mol and 39.3 kcal/mol
  Thermal transition midpoint temperature of HEWL: 346.29 and 346.02 and 346.35
[1]; stored at 100 mg/ml in NaOAc, 0 months
  Thermal transition midpoint temperature of HEWL: 346.92 and 346.45 and 347.06
[1]; stored at 100 mg/ml in NaOAc, 1 month
  Thermal transition midpoint temperature of HEWL: 345.92 and 346.17 and 345.84
[1]; stored at 100 mg/ml in NaOAc, 2 months
  Thermal transition midpoint temperature of HEWL: 345.78 and 346 and 345.69
[1]; stored at 100 mg/ml in NaOAc, 3 months
  Thermal transition midpoint temperature of HEWL: 345.79 and 345.9 and 345.66
[1]; stored at 100 mg/ml in NaOAc, 4 months
  Thermal transition midpoint temperature of HEWL: 345.47 and 345.41 and 345.51
[1]; stored at 100 mg/ml in NaOAc, 5 months
  Thermal transition midpoint temperature of HEWL: 345.39 and 345.41
[2]; 0% w/w CDHP
  Gibbs free energy change at 25 C.: 15.57794 kcal/mol and 14.4963 kcal/mol and 15.03024 kcal/mol
[2]; 0% w/w CDHP in 0.1M NaOAc
  Tm: 75.18 °C and 75.19 °C and 75.25 °C
  ΔH: 104.019 kcal/mol and 107.8 kcal/mol and 100.216 kcal/mol
  ΔS: 298.62 cal/mol K and 309.47 cal/mol K and 287.65 cal/mol K
[2]; 5% w/w CDHP
  Gibbs free energy change at 25 C.: 15.91862 kcal/mol and 15.48014 kcal/mol and 14.73002 kcal/mol
[2]; 5% w/w CDHP in 0.1M NaOAc
  Tm: 76.08 °C and 76.07 °C and 75.4 °C
  ΔH: 100.408 kcal/mol and 108.54 kcal/mol and 106.838 kcal/mol
  ΔS: 287.51 cal/mol K and 310.81 cal/mol K and 306.57 cal/mol K
[2]; 10% w/w CDHP
  Gibbs free energy change at 25 C.: 15.05244 kcal/mol and 16.93442 kcal/mol and 15.29508 kcal/mol
[2]; 10% w/w CDHP in 0.1M NaOAc
  Tm: 76.08 °C and 76.10 °C and 77.09 °C
  ΔH: 104.26 kcal/mol and 102.581 kcal/mol and 113.549 kcal/mol
  ΔS: 298.54 cal/mol K and 293.72 cal/mol K and 324.21 cal/mol K
[2]; 20% w/w CDHP
  Gibbs free energy change at 25 C.: 18.36296 kcal/mol and 17.40526 kcal/mol and 17.75496 kcal/mol
[2]; 20% w/w CDHP in 0.1M NaOAc
  Tm: 78.82 °C and 78.94 °C and 78.79 °C
  ΔH: 115.791 kcal/mol and 119.528 kcal/mol and 113.549 kcal/mol
  ΔS: 328.98 cal/mol K and 339.48 cal/mol K and 322.63 cal/mol K
[2]; 20% w/w Choline Chloride
  Gibbs free energy change at 25 C.: 13.3979 kcal/mol and 12.59732 kcal/mol and 12.72542 kcal/mol
[2]; [9]
  Tm: 72.47 °C and 72.62 °C and 72.36 °C
  ΔH: 92.354 kcal/mol and 96.972 kcal/mol and 91.615 kcal/mol
  ΔS: 267.21 cal/mol K and 280.45 cal/mol K and 265.16 cal/mol K
[2]; 30% tw/w CDHP
  Gibbs free energy change at 25 C.: 20.716 kcal/mol and 17.0974 kcal/mol and 22.40708 kcal/mol
[2]; 30% w/w CDHP in 0.1M NaOAc
  Tm: 81.86 °C and 82.00 °C and 81.80 °C
  ΔH: 139.533 kcal/mol and 128.741 kcal/mol and 106.557 kcal/mol
  ΔS: 393.04 cal/mol K and 362.5 cal/mol K and 300.2 cal/mol K
[2]; 40% w/w CDHP
  Gibbs free energy change at 25 C.: 25.634 kcal/mol and 23.8304 kcal/mol and 24.0018 kcal/mol
[2]; 40% w/w CDHP in 0.1M NaOAc
  Tm: 86.27 °C and 86.39 °C and 86.37 °C
  ΔH: 140.49 kcal/mol and 149.751 kcal/mol and 139.216 kcal/mol
  ΔS: 390.9 cal/mol K and 416.5 cal/mol K and 307.2 cal/mol K
[3]
  enzyme activity over time: degrades faster
[4]
  decrease of thermal transition midpoint temperature at the higher concentration: ~5 °C
[5]
  formulated protein contained in the pellet: ~90%
  formulated protein found in the supernatant: about 10%
